According to patent US8133978 (GlaxoSmithKline, dated 2012):

T1: Human interleukin-18 (recombinant human IL-18) (human, UniProt Q14116 37-193)
T1 construct: also called hIL-18
T1 sequence: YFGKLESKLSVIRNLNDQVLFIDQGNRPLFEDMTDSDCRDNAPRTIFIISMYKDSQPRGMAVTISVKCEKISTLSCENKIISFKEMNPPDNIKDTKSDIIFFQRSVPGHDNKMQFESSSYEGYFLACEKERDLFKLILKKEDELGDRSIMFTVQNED


Tests used:
[1] = target: T1, Human interleukin-18 (recombinant human …); experiment: SPR, Biacore 3000, antibody captured on Protein A, 25 C
Description: Biacore™ kinetic analysis of the humanised 2C10 antibodies was carried out on a Biacore™ 3000 instrument using Protein A capture of the antibodies in HBS-EP buffer (Biacore™). Briefly, Protein A was immobilised on a CM5 chip by primary amine coupling, using manufacturers recommended protocol, to densities around 2000-4000 resonance units (RU's). Humanised antibody was then passed over the Protein A surface and captured to levels of around 200-500 RU's, after a period of stabilisation, IL-18 (human or Rhesus) was passed over the captured antibody surface at defined concentrations and binding sensorgrams were obtained. […] All curves were double referenced against a buffer injection instead of IL-18 and the data was fitted to the 1:1 binding model using the global fit parameters in BiaEval 4.1. Off-rate ranking experiments were set up using the same Protein A capture method, however, only a single concentration of IL-18 was used (10 nM). Whilst the data was fitted using the same binding model as the kinetic analysis, since only one concentration of analyte was used on the off-rate is reported, this value is useful for ranking rather than giving an exact kinetic measurement and was used as a way of selecting which antibodies would be further investigated. […]

[2] = target: T2, Rhesus IL-18 (rhesus (rhesus/cynomolgus)); experiment: as above
T2 construct: also called Rhesus/Cynomolgus IL-18; rhesus/cynomolgus IL-18
Description: (§1) Biacore™ kinetic analysis of the humanised 2C10 antibodies was carried out on a Biacore™ 3000 instrument using Protein A capture of the antibodies in HBS-EP buffer (Biacore™). Briefly, Protein A was immobilised on a CM5 chip by primary amine coupling, using manufacturers recommended protocol, to densities around 2000-4000 resonance units (RU's). Humanised antibody was then passed over the Protein A surface and captured to levels of around 200-500 RU's, after a period of stabilisation, IL-18 (human or Rhesus) was passed over the captured antibody surface at defined concentrations and binding sensorgrams were obtained. […] All curves were double referenced against a buffer injection instead of IL-18 and the data was fitted to the 1:1 binding model using the global fit parameters in BiaEval 4.1. Off-rate ranking experiments were set up using the same Protein A capture method, however, only a single concentration of IL-18 was used (10 nM). Whilst the data was fitted using the same binding model as the kinetic analysis, since only one concentration of analyte was used on the off-rate is reported, this value is useful for ranking rather than giving an exact kinetic measurement and was used as a way of selecting which antibodies would be further investigated.
(§2) Based upon these observations selected antibodies were investigated in greater detail for binding to human and Rhesus IL-18 at 37° C. The data shown in Table 4b for human IL-18 is the mean (and standard deviation) of six separate determinations.

[3] = target: T1, Human interleukin-18 (recombinant human …); experiment: ELISA, human IL-18 captured by 16D10, antibody titrated
Description: ELISA with all nine humanised variants was carried out at least 6 times using various batches of purified antibody preparation. FIGS. 4A-4C show representative data from one experiment which generated the EC50 value ranking illustrated in Table 7. Human IL-18 was immobilized on Nunc Maxisorp 96-well plates using 2.5 µg/ml of 16D10 (non-neutralising mouse monoclonal antibody) to capture 5 ng/ml of recombinant human IL-18. Anti-IL-18 humanised antibodies were added at various dilutions. Bound humanised antibodies were detected using anti-human IgG Fc specific peroxidase conjugate (Sigma A0170).

[4] = target: T1, Human interleukin-18 (recombinant human …); experiment: cell-based or functional assay
[5] = target: T1, Human interleukin-18 (recombinant human …); experiment: SPR, Biacore T100, Protein A capture, 25 C, mean n = 4
Description: (§3) The methodology was basically the same as for the method used in Example 4a above; Protein A was immobilised on a CM5 chip at densities of between 2000-6000 RU's by primary amine coupling. Runs were carried out in HBS-EP (Biacore™). The anti-IL-18 antibodies were captured to densities of between 100-500 RUs, human IL-18 was passed over this captured surface at concentrations between 16-0.0625 nM, with 0 nM concentration (i.e., a buffer only injection of captured antibody) used for double referencing. Regeneration after each injection of IL-18 was by mild acidic elution using two injections of 10 mM glycine, pH1.5. […] The binding curves obtained were analysed using the analysis software inherent to the T100 machine using the 1:1 model of binding. Runs were carried out at the temperatures indicated.
(§4) These experiments were carried out as described above. Table 6 details the kinetic parameters obtained. […] H1L2 has a better on-rate (ka) than H1L1.

[6] = target: T1, Human interleukin-18 (recombinant human …); experiment: SPR, Biacore T100, Protein A capture, 37 C, mean n = 6
Description: as §3, §4

[7] = target: T1, Human interleukin-18 (recombinant human …); experiment: SPR, Biacore T100, antibody captured on Protein A, 15 C
[8] = target: T1, Human interleukin-18 (recombinant human …); experiment: SPR, Biacore T100, antibody captured on Protein A, 20 C
Description: as §3
(§5) This experiment was carried out using the above method at various temperatures. […] Table 5 details the kinetic values used to create these figures.

[9] = target: T1, Human interleukin-18 (recombinant human …); experiment: SPR, Biacore T100, antibody captured on Protein A, 25 C
Description: as §3, §5

[10] = target: T1, Human interleukin-18 (recombinant human …); experiment: SPR, Biacore T100, antibody captured on Protein A, 32 C
Description: as §3, §5

[11] = target: T1, Human interleukin-18 (recombinant human …); experiment: SPR, Biacore T100, antibody captured on Protein A, 37 C
Description: as §3, §5

[12] = target: T1, Human interleukin-18 (recombinant human …); experiment: ELISA, antibody on plate, human IL-18 captured, detected by 16D10; 37 C, in serum
Description: (§6) ELISA was carried out with the three Humanised H1 variants; H1L1, H1L2 and H1L3 to assess binding to human IL-18 at room temperature and at 37° C. in both human serum and in block solution (PBS 0.05% TWEEN with 1% BSA (w/v)). The Humanised antibody variants were immobilised on Nunc Maxisorp 96-well plates at 2.5 µg/ml. Capture of 5 ng/ml of recombinant human IL-18 was carried out either at room temperature or 37° C. in human serum or block solution. Anti-IL-18 mouse monoclonal antibody 16D10 was added. The bound mouse antibody was detected using anti-mouse kappa peroxidase conjugate (Serotec MCA 1291P). Representative EC50 values generated from the study data are illustrated in Table 9.

[13] = target: T1, Human interleukin-18 (recombinant human …); experiment: ELISA, antibody on plate, human IL-18 captured, detected by 16D10; 37 C, blocking buffer
Description: as §6

[14] = target: T1, Human interleukin-18 (recombinant human …); experiment: ELISA, antibody on plate, human IL-18 captured, detected by 16D10; room temperature, in serum
Description: as §6

[15] = target: T1, Human interleukin-18 (recombinant human …); experiment: ELISA, antibody on plate, human IL-18 captured, detected by 16D10; room temperature, blocking buffer
Description: as §6

[16] = target: T1, Human interleukin-18 (recombinant human …); experiment: SPR, Biacore 3000, antibody captured on Protein A, 37 C
Description: as §1, §2

[17] = target: T2, Rhesus IL-18; experiment: as above
Description: as §1, §2

[18] = target: T2, Rhesus IL-18; experiment: Rhesus IL18 binding ELISA, antibody titrated, OD 490 nm

| Binder | Kd [1] [pM] | Kd [2] [pM] | EC50 [3] [µg/mL] | also measured |
| --- | --- | --- | --- | --- |
| H2L2 humanised anti-IL-18 antibody (antibody, human IgG1, kappa, V domains shown, Human IgG1 / kappa) VH: QVQLVQSGAEVKKPGASVKVSCKVSGEISTGYYFHWVRRRPGKGLEWMGRIDPEDDSTKYAERFKDRVTMTEDTSTDTAYMELSSLRSEDTAVYYCTTWRIYRDSSGRPFYVMDAWGQGTLVTVSS VL: DIQMTQSPSSVSASVGDRVTITCLASEDIYTYLTWYQQKPGKAPKLLIYGANKLQDGVPSRFSGSGSGTDYTLTISSLQPEDFATYYCLQGSKFPLTFGQGTKLEIKR | 20.1 | 104 | 0.012 |  |
| H3L1 humanised anti-IL-18 antibody (antibody, human IgG1, kappa, V domains shown, Human IgG1 / kappa) VH: QVQLVQSGAEVKKPGASVKVSCKVSGEISTGYYFHFVRRRPGKGLEWMGRIDPEDDSTKYAERFKDRVTMTADTSTDTAYMELSSLRSEDTATYFCTTWRIYRDSSGRPFYVMDAWGQGTLVTVSS VL: DIQMTQSPSSVSASVGDRVTITCLASEDIYTYLTWYQQKPGKAPKLLIYGANKLQDGVPSRFSGSGSGTDFTLTISSLQPEDFATYYCLQGSKFPLTFGQGTKLEIKR | 19.4 | 149 | 0.013 |  |
| H1L1 humanised anti-IL-18 antibody (antibody, human IgG1, kappa, V domains shown, Human IgG1 / kappa) VH: QVQLVQSGAEVKKPGASVKVSCKVSGEISTGYYFHWVRQAPGKGLEWMGRIDPEDDSTKYAERFKDRVTMTEDTSTDTAYMELSSLRSEDTAVYYCTTWRIYRDSSGRPFYVMDAWGQGTLVTVSS VL: DIQMTQSPSSVSASVGDRVTITCLASEDIYTYLTWYQQKPGKAPKLLIYGANKLQDGVPSRFSGSGSGTDFTLTISSLQPEDFATYYCLQGSKFPLTFGQGTKLEIKR | 33.2 | 380 | 0.01 | % change vs 2C10 (IC50, KG-1 bioassay) [4]: 269%; Kd [5]: 33.1 pM; Kd [6]: 94.3 pM; Kd [7]: 20.1 pM; Kd [8]: 23.7 pM; Kd [9]: 31.1 pM; Kd [10]: 47.2 pM; Kd [11]: 53.3 pM; EC50 [12]: 0.0121 µg/mL; EC50 [13]: 0.00343 µg/mL; EC50 [14]: 0.0102 µg/mL; EC50 [15]: 0.00331 µg/mL |
| H2L3 humanised anti-IL-18 antibody (antibody, human IgG1, kappa, V domains shown, Human IgG1 / kappa) VH: QVQLVQSGAEVKKPGASVKVSCKVSGEISTGYYFHWVRRRPGKGLEWMGRIDPEDDSTKYAERFKDRVTMTEDTSTDTAYMELSSLRSEDTAVYYCTTWRIYRDSSGRPFYVMDAWGQGTLVTVSS VL: DIQMTQSPSSVSASVGDRVTITCLASEDIYTYLTWYQQKPGKAPQLLIYGANKLQDGVPSRFSGSGSGTDYTLTISSLQPEDEGDYYCLQGSKFPLTFGQGTKLEIKR | 23.8 |  | 0.016 |  |
| H3L2 humanised anti-IL-18 antibody (antibody, human IgG1, kappa, V domains shown, Human IgG1 / kappa) VH: QVQLVQSGAEVKKPGASVKVSCKVSGEISTGYYFHFVRRRPGKGLEWMGRIDPEDDSTKYAERFKDRVTMTADTSTDTAYMELSSLRSEDTATYFCTTWRIYRDSSGRPFYVMDAWGQGTLVTVSS VL: DIQMTQSPSSVSASVGDRVTITCLASEDIYTYLTWYQQKPGKAPKLLIYGANKLQDGVPSRFSGSGSGTDYTLTISSLQPEDFATYYCLQGSKFPLTFGQGTKLEIKR | 16.5 | 59.6 | 0.008 | Kd [16]: 105 pM; Kd [17]: 64.3 pM |

The next lines start with results.

| Kd [1] [pM] | Kd [2] [pM] | EC50 [3] [µg/mL] | Binder | also measured |
| --- | --- | --- | --- | --- |
| 33.5 | 627 | 0.021 | H2L1 humanised anti-IL-18 antibody (antibody, human IgG1, kappa, V domains shown, Human IgG1 / kappa) VH: QVQLVQSGAEVKKPGASVKVSCKVSGEISTGYYFHWVRRRPGKGLEWMGRIDPEDDSTKYAERFKDRVTMTEDTSTDTAYMELSSLRSEDTAVYYCTTWRIYRDSSGRPFYVMDAWGQGTLVTVSS VL: DIQMTQSPSSVSASVGDRVTITCLASEDIYTYLTWYQQKPGKAPKLLIYGANKLQDGVPSRFSGSGSGTDFTLTISSLQPEDFATYYCLQGSKFPLTFGQGTKLEIKR |  |
| 24.2 |  | 0.009 | H3L3 humanised anti-IL-18 antibody (antibody, human IgG1, kappa, V domains shown, Human IgG1 / kappa) VH: QVQLVQSGAEVKKPGASVKVSCKVSGEISTGYYFHFVRRRPGKGLEWMGRIDPEDDSTKYAERFKDRVTMTADTSTDTAYMELSSLRSEDTATYFCTTWRIYRDSSGRPFYVMDAWGQGTLVTVSS VL: DIQMTQSPSSVSASVGDRVTITCLASEDIYTYLTWYQQKPGKAPQLLIYGANKLQDGVPSRFSGSGSGTDYTLTISSLQPEDEGDYYCLQGSKFPLTFGQGTKLEIKR | Kd [16]: 110 pM; Kd [17]: 75.6 pM; EC50 (read off the curve) [18]: ~0.03 µg/mL |
